Tests used:
[1] = tested on: MBP-specific RsL.11 T cell clone; experiment: Antigen-specific proliferation of RsL.11 T cell clone with irradiated splenic APC; type: cell-based, rat
Protocol: FIG. 2. Structure-function analysis of the cytokine and NAg domains of IFNβ fusion proteins. (A) Expression supernatants containing designated IFNβ fusion proteins (see Table 2) were added to cultures of BN-GP T cells at designated titrations (x-axis). (B) The IFNβ-EK-NAg-6his or IFNβ-EK-6his fusion genes were inserted into the pCEP4 expression vector (Invitrogen). Inserts were verified by DNA sequencing, and the genes were expressed by transient transfection of HEK293 cells. Independently derived expression systems of IFNβ-EK-NAg-6his or IFNβ-EK-6his (3 each) were compared in the BN-GP T cell anti-proliferative assay. (C) Independently purified preparations (2 each) of each IFN-β fusion protein (IFNβ-NAg from HEK293 cells, IFNβ-NAg from baculovirus, and IFN-β from HEK293 cells) were added at designated concentrations to assess anti-proliferative activity. Two independently purified preparations of the same fusion protein were tested to verify the reliability of activity for each type of protein. The x-axis was based on the exponent of the molar concentration. For example, a concentration of 100 nM was represented as Log [10^−7]=Log10) (10^−7M)=−7 and was plotted by the exponent of −7. For these experiments (A-C), BN-GP T cells were cultured in IL-2. (D) The MBP-specific RsL.11 T cell clone and irradiated splenic APC were cultured with designated concentrations of purified IFNβ-NAg or GPMBP in the presence or absence of the OX6 anti-MHC-II mAb. (E) Five preparations of purified IFNβ-NAg and six preparations of purified IFN-β were tested for antigenic activity in cultures of RsL.11 T cells and irradiated splenic APC.
The RsL.11 MBP-specific clone was a stable, IL-2 dependent line derived from Lewis rats sensitized with rat MBP in CFA (Mannie, M. D., and M. S. Norris. 2001. MHC class-II-restricted antigen presentation by myelin basic protein-specific CD4+ T cells causes prolonged desensitization and outgrowth of CD4-responders. Cell Immunol 212:51-62). The RsL.11T clone was a transformed variant of the RsL.11 clone. […]

[2] = tested on: EAE in Lewis rats; experiment: Treatment of ongoing EAE after disease onset; type: in vivo
[3] = Table 6 Experiment 1, s.c. day 9 (1 nmole), day 10 (1 nmole), day 12 (0.5 nmole) after DHFR-NAg in CFA day 0
[4] = Table 6 Experiment 2, 1 nmole s.c. on days 9, 10, 12, and 14 after DHFR-NAg in CFA day 0
[5] = Table 6 Experiments 1 & 2 compiled, treatment from day 9 after onset
[6] = Table 7 Experiment 1, 1 nmole s.c. days 10, 11, and 13, severe EAE = scores from 1.0 to 3.0
[7] = Table 7 Experiment 1, 1 nmole s.c. in saline days 10, 11, and 13, IFNβ + NAg as mixture
[8] = Table 7 Experiment 2, 1 nmole s.c. days 9, 10, 12, and 14, severe EAE = scores from 1.0 to 3.0
[9] = Table 7 Experiment 2, 1 nmole s.c. in saline days 9, 10, 12, and 14, IFNβ + NAg as mixture
[10] = Table 7 Experiment 3, 1 nmole s.c. days 9, 10, and 12, severe EAE = scores from 1.0 to 3.0
[11] = Table 7 Experiment 3, 1 nmole s.c. in saline days 9, 10, and 12, IFNβ + NAg as mixture
[12] = Table 7 Experiments 1-3 compiled, 1 nmole s.c. after onset
[13] = Table 7 Experiments 1-3 compiled, severe EAE = scores from 1.0 to 3.0

B1: IFNβ-NAg: Fusion protein: rat IFNβ, enterokinase linker (GDDDDKG), encephalitogenic 73-87 peptide of guinea pig MBP, C-terminal 6-histidine tag (protein)
chain: IDYKQLQFRQSTSIRTCQKLLRQLNGRLNLSYRTDFKIPMEVMHPSQMEKSYTAFAIQVMLQNVFLVFRSNFSSTGWNETIVESLLDELHQQTELLEIILKEKQEERLTWVTSTTTLGLKSYYWRVQRYLKDKKYNSYAWMVVRAEVFRNFSIILRLNRNFQNGDDDDKGPQKSQRSQDENPVVHHHHHH
B1 was tested, and the “antigenic potency relative to GPMBP” value ([1]; at low concentrations, concentration eliciting half-maximal response) was “more potent than intact guinea pig myelin basic protein”, the peak proliferative response ([1]; compared with GPMBP) was “substantially less than that stimulated by GPMBP” and the “% mean maximal weight loss” value [2, 3] was 3.8 ± 2.0%. For the same molecule, the “Incidence of severe EAE” value [2, 3] was 1 of 6, the “Mean # days with severe EAE” value [2, 3] was 0.1 ± 0.2 days and the Mean cum. score [2, 3] was 3.4 ± 2.1. It also gave a Mean maximal score [2, 3] of 0.7 ± 0.6, a Median cum. score [2, 3] of 3.5 and a Median maximal score [2, 3] of 0.5. The “% mean maximal weight loss” value [2, 4] was 6.4 ± 5.0%, the “Incidence of severe EAE” value [2, 4] was 1 of 5 and the “Mean # days with severe EAE” value [2, 4] was 0.1 ± 0.2 days. It also gave a Mean cum. score [2, 4] of 2.7 ± 1.5, a Mean maximal score [2, 4] of 0.7 ± 0.8 and a Median cum. score [2, 4] of 2.3. For the same molecule, the Median maximal score [2, 4] was 0.3, the “% mean maximal weight loss” value [2, 5] was 5.0 ± 3.7% and the “Incidence of severe EAE” value [2, 5] was 2 of 11. For the same molecule, the “Mean # days with severe EAE” value [2, 5] was 0.1 ± 0.2 days, the Mean cum. score [2, 5] was 3.1 ± 1.8 and the Mean maximal score [2, 5] was 0.7 ± 0.7. For the same molecule, the Median cum. score [2, 5] was 2.8, the Median maximal score [2, 5] was 0.5 and the “Incidence of severe EAE” value [2, 6] was 0 of 5. For the same molecule, the “Mean # days with severe EAE (A-P)” value [2, 6] was 0.3 ± 0.7 days, the Mean cum. score [2, 7] was 1.7 ± 0.9 and the Mean maximal score [2, 7] was 0.4 ± 0.1. The Median cum. score [2, 7] was 1.8, the Median maximal score [2, 7] was 0.3 and the “Incidence of severe EAE” value [2, 8] was 1 of 6. The “Mean # days with severe EAE (A-P)” value [2, 8] was 0.1 ± 0.2 days, the Mean cum. score [2, 9] was 1.0 ± 0.7 and the Mean maximal score [2, 9] was 0.6 ± 0.7. For the same molecule, the Median cum. score [2, 9] was 0.8, the Median maximal score [2, 9] was 0.4 and the “Incidence of severe EAE” value [2, 10] was 0 of 7. For the same molecule, the “Mean # days with severe EAE (A-P)” value [2, 10] was 0.0 ± 0.0 days, the Mean cum. score [2, 11] was 1.7 ± 0.6 and the Mean maximal score [2, 11] was 0.4 ± 0.1. It also gave a Median cum. score [2, 11] of 1.8, a Median maximal score [2, 11] of 0.3 and a Mean cum. score [2, 12] of 1.4 ± 0.8. It also gave a Mean maximal score [2, 12] of 0.4 ± 0.4, a Median cum. score [2, 12] of 1.4 and a Median maximal score [2, 12] of 0.3. The “Incidence of severe EAE” value [2, 13] was 1 of 18, the “Mean # days with severe EAE (A-P)” value [2, 13] was 0.1 ± 0.4 days and the “EAE-associated weight loss, mean” value ([2]; experiment 1 of Table 7) was 9.7%. The “EAE-associated weight loss, mean” value ([2]; experiment 2 of Table 7) was 8.7% and the “EAE-associated weight loss, mean” value ([2]; experiment 3 of Table 7) was 8.5%.

B2: IFNβ: Rat interferon beta cytokine with enterokinase linker and 6-histidine sequence, no neuroantigen (protein)
chain: IDYKQLQFRQSTSIRTCQKLLRQLNGRLNLSYRTDFKIPMEVMHPSQMEKSYTAFAIQVMLQNVFLVFRSNFSSTGWNETIVESLLDELHQQTELLEIILKEKQEERLTWVTSTTTLGLKSYYWRVQRYLKDKKYNSYAWMVVRAEVFRNFSIILRLNRNFQNGDDDDKGHHHHHH
For B2, the “stimulatory activity (antigen-specific proliferation)” value ([1]; independently purified preparations, RsL.11 T cells and irradiated splenic APC) was “devoid of stimulatory activity”, the “% mean maximal weight loss” value [2, 3] was 10.6 ± 5.3% and the “Incidence of severe EAE” value [2, 3] was 5 of 6. The “Mean # days with severe EAE” value [2, 3] was 1.4 ± 1.1 days, the Mean cum. score [2, 3] was 11.1 ± 5.1 and the Mean maximal score [2, 3] was 2.2 ± 0.8. For the same molecule, the Median cum. score [2, 3] was 10.3, the Median maximal score [2, 3] was 2.0 and the “% mean maximal weight loss” value [2, 4] was 20.7 ± 1.9%. For the same molecule, the “Incidence of severe EAE” value [2, 4] was 3 of 5, the “Mean # days with severe EAE” value [2, 4] was 1.3 ± 1.4 days and the Mean cum. score [2, 4] was 11.2 ± 5.9. It also gave a Mean maximal score [2, 4] of 2.0 ± 1.0, a Median cum. score [2, 4] of 8.3 and a Median maximal score [2, 4] of 2.0. The “% mean maximal weight loss” value [2, 5] was 15.2 ± 6.5%, the “Incidence of severe EAE” value [2, 5] was 8 of 11 and the “Mean # days with severe EAE” value [2, 5] was 1.4 ± 1.2 days. The Mean cum. score [2, 5] was 11.1 ± 5.2, the Mean maximal score [2, 5] was 2.1 ± 0.8 and the Median cum. score [2, 5] was 8.3. For the same molecule, the Median maximal score [2, 5] was 2.0, the “Incidence of severe EAE” value [2, 8] was 6 of 6 and the “Mean # days with severe EAE (A-P)” value [2, 8] was 1.9 ± 2.1 days. The Mean cum. score [2, 9] was 7.2 ± 3.8, the Mean maximal score [2, 9] was 2.2 ± 1.0 and the Median cum. score [2, 9] was 5.9. For the same molecule, the Median maximal score [2, 9] was 2.5, the “Incidence of severe EAE” value [2, 10] was 2 of 7 and the “Mean # days with severe EAE (A-P)” value [2, 10] was 0.4 ± 0.6 days. For the same molecule, the Mean cum. score [2, 11] was 3.1 ± 2.2, the Mean maximal score [2, 11] was 1.0 ± 1.1 and the Median cum. score [2, 11] was 2.5. The Median maximal score [2, 11] was 0.5, the Mean cum. score [2, 12] was 5.0 ± 3.6 and the Mean maximal score [2, 12] was 1.5 ± 1.2. The Median cum. score [2, 12] was 4.0, the Median maximal score [2, 12] was 1.0 and the “Incidence of severe EAE” value [2, 13] was 8 of 13. For the same molecule, the “Mean # days with severe EAE (A-P)” value [2, 13] was 1.1 ± 1.7 days and the “course of EAE during treatment” value ([2]; treatment after onset, disease rebound after cessation on day 12 or day 14) was “initial suppression of EAE”.
